The values below are quoted from earlier work in article PMC10605242.

One may read the pKd as the Kd on a negative log10 scale, so that one unit is a factor of ten.

In data set [1] the target is C4b dimer (B isoform) (Homo sapiens) (UniProt P0C0L5).
The target in data set [2] is C4b dimer (A isoform) (Homo sapiens) (UniProt P0C0L4).
Data set [3] concerns the target C4b (Homo sapiens) (UniProt P0C0L4).

pKd: −log10 of the molar value.

Take CR1 (from UniProt P17927): the pKd in data set [1] was 6.35; in data set [2], 6.89.

As to CR1 SCR15-18 (from UniProt P17927), the pKd in data set [3] was 5.92.
